From patent US20250034260A1 (Sanofi, published 2025)
Each block holds one binder with its values, some of them ahead of it.

Key:
[1] = target: T1, human FcRn (biotinylated) (human, UniProt P61769 21-119, biotinylated (site not stated)); test: SPR, Biacore 8K+, biotinylated human FcRn captured on SA chip, pH 6.0, bivalent analyte fit; pH 6.0
T1 construct: also called neonatal Fc receptor; FcRP
Procedure: (§1) The Nanobody® VHH-Fc protein constructs (FcRn antagonists) were characterized by affinity determination for human FcRn and cyno FcRn at pH 6.0 and pH 7.4 on the Biacore 8K+ instrument. For affinity measurements, ^{˜}200-400 of biotinylated human or cyno FcRn was captured on a Series S Sensor Chip SA. The Nanobody® VHH-Fc fusion proteins were injected at 9 different concentrations (between 0.5 and 1500 nM) and allowed to associate for 120 s at 30 μL/min and dissociate for 600 s.
(§2) The data could not be fitted with the 1:1 Langmuir dissociation model, and a Bivalent Analyte fitting model was used instead due to biphasic on-rate behaviour observed during analysis. The FcRn affinities obtained for TP061 were in line with the published data (see, e.g., Vaccaro, C., Zhou, J., Ober, R. et al., “Engineering the Fc region of immunoglobulin G to modulate in vivo antibody levels”, Nat. Biotechnol. 23, 1283-1288 (2005)).

cyno FcRn (biotinylated) [2] = target: T2, cyno FcRn (biotinylated) (cynomolgus, UniProt Q8SPV9 24-297; Q8SPW0 21-119, limits assumed, biotinylated (site not stated)); test: SPR, Biacore 8K+, biotinylated cyno FcRn captured on SA chip, pH 6.0, bivalent analyte fit; pH 6.0
T2 construct: also called Cynomolgus FcRn; cynomolgus monkey FcRn
T2 sequence (Q8SPV9 24-297 limits assumed, chain 1 of 2): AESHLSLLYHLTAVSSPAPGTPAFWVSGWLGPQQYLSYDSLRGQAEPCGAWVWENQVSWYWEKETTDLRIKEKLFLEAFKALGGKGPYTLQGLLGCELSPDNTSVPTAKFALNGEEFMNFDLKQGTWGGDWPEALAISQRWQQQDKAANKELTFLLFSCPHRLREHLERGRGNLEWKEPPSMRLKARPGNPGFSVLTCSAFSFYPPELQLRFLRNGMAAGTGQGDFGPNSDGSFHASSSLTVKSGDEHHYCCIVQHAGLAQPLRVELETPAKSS
T2 sequence (Q8SPW0 21-119 limits assumed, chain 2 of 2): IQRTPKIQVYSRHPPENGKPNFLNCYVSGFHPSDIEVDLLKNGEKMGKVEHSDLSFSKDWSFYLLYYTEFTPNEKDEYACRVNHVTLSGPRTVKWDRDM
Procedure: as §1, §2

cyno FcRn (biotinylated) [3] = target: T2, cyno FcRn (biotinylated); test: SPR, Biacore 8K+, biotinylated cyno FcRn captured on SA chip, pH 6.0, bivalent analyte fit
Procedure: as §1, §2

[4] = target: T1, human FcRn (biotinylated); test: SPR, Biacore 8K+, biotinylated human FcRn captured on SA chip, pH 7.4, bivalent analyte fit
Procedure: as §1, §2

cyno FcRn (biotinylated) [5] = target: T2, cyno FcRn (biotinylated); test: SPR, Biacore 8K+, biotinylated cyno FcRn captured on SA chip, pH 7.4, bivalent analyte fit
Procedure: as §1, §2

[6] = target: T1, human FcRn (biotinylated); test: SPR, Biacore 8K+, biotinylated human FcRn captured on SA chip, pH 6.0, bivalent analyte fit
Procedure: as §1, §2

Kd [1]: 17.2 nM
Kd (cyno FcRn (biotinylated) [2]): 27.5 nM
B1: T-0263-00_TP061 (other)
chain: DKTHTCPPCPAPELLGGPSVFLFPPKPKDTLYITREPEVTCVVVDVSHEDPEVKFNWYVDGVEVHNAKTKPREEQYNSTYRVVSVLTVLHQDWLNGKEYKCKVSNKALPAPIEKTISKAKGQPREPQVYTLPPSRDELTKNQVSLTCLVKGFYPSDIAVEWESNGQPENNYKTTPPVLDSDGSFFLYSKLTVDKSRWQQGNVFSCSVMHEALKFHYTQKSLSLSPGK
notes: Symmetrical (homodimeric) Fc-only control made without knob-in-hole; also called control FcRn antagonist; IgG1 Fc YTE-KF Fc domain without Nanobody VHH

Kd (cyno FcRn (biotinylated) [3]): 0.683 nM
Kd [4]: 14 nM
Kd (cyno FcRn (biotinylated) [5]): 12.5 nM
Kd [6]: 0.873 nM
B2: T-0263-00_TP069 (Fc fusion)
chain 1: DKTHTCPPCPAPELLGGPSVFLFPPKPKDTLYITREPEVTCVVVDVSHEDPEVKFNWYVDGVEVHNAKTKPREEQYNSTYRVVSVLTVLHQDWLNGKEYKCKVSNKALPAPIEKTISKAKGQPREPQVYTLPPCRDELTKNQVSLWCLVKGFYPSDIAVEWESNGQPENNYKTTPPVLDSDGSFFLYSKLTVDKSRWQQGNVFSCSVMHEALKFHYTQKSLSLSPGGGGGSGGGGSGGGGSGGGGSGGGGSGGGGSGGGGSEVQLVESGGGVVQPGGSLRLSCAASGFTFSSYAMYWVRQAPGKGLEWVSAISSGGGSTDYADSVKGRFTISRDNSKNTLYLQMNSLRPEDTALYYCAADTLYTSLTSYSYWGQGTLVTVSS
chain 2: DKTHTCPPCPAPELLGGPSVFLFPPKPKDTLYITREPEVTCVVVDVSHEDPEVKFNWYVDGVEVHNAKTKPREEQYNSTYRVVSVLTVLHQDWLNGKEYKCKVSNKALPAPIEKTISKAKGQPREPQVCTLPPSRDELTKNQVSLSCAVKGFYPSDIAVEWESNGQPENNYKTTPPVLDSDGSFFLVSKLTVDKSRWQQGNVFSCSVMHEALKFHYTQKSLSLSPG
notes: also called C-terminal fusion construct; human IgG1 Fc YTE-KF (knob)-35GS-T0263018B11(W100cS) + Fc YTE-KF (hole)

Kd (cyno FcRn (biotinylated) [3]): 0.541 nM
Kd [4]: 10.3 nM
Kd (cyno FcRn (biotinylated) [5]): 11.2 nM
Kd [6]: 0.692 nM
B3: T-0263-00_TP067 (Fc fusion)
chain 1: DVQLVESGGGVVQPGGSLRLSCAASGFTFSSYAMYWVRQAPGKGLEWVSAISSGGGSTDYADSVKGRFTISRDNSKNTLYLQMNSLRPEDTALYYCAADTLYTSLTSYSYWGQGTLVTVSSDKTHTCPPCPAPELLGGPSVFLFPPKPKDTLYITREPEVTCVVVDVSHEDPEVKFNWYVDGVEVHNAKTKPREEQYNSTYRVVSVLTVLHQDWLNGKEYKCKVSNKALPAPIEKTISKAKGQPREPQVYTLPPCRDELTKNQVSLWCLVKGFYPSDIAVEWESNGQPENNYKTTPPVLDSDGSFFLYSKLTVDKSRWQQGNVFSCSVMHEALKFHYTQKSLSLSPG
chain 2: B2 chain 2
notes: also called N-terminal fusion construct; T0263018B11(E1D,W100cS)-human IgG1 Fc YTE-KF (knob) + Fc YTE-KF (hole)
